Measured values from patent US20220372154A1 (APEXIGEN, published 2022).

Assays:
[1] = target: T1, cynomolgus TNFR2-His tagged protein (cynomolgus, UniProt A0A2K5VET2 132-366); test: ELISA, cynomolgus TNFR2
T1 construct: also called Cyno TNFR2; cynomolgus TNFR2 protein; not shown: His tag
T1 sequence: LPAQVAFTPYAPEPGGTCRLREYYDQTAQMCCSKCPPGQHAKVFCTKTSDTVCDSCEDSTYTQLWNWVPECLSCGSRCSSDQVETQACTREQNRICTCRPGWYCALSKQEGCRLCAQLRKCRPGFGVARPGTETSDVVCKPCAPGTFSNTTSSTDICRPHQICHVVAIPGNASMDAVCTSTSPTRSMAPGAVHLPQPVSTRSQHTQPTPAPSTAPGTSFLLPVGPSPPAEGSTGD

[2] = target: T2, human TNFR2-His tagged protein (soluble) (human, UniProt P20333 23-257); test: ELISA on coated hTNFR2-His, OD 450 nm
T2 construct: also called hTNFR2 (soluble); soluble TNFR2-His; not shown: His tag
T2 sequence (looked up): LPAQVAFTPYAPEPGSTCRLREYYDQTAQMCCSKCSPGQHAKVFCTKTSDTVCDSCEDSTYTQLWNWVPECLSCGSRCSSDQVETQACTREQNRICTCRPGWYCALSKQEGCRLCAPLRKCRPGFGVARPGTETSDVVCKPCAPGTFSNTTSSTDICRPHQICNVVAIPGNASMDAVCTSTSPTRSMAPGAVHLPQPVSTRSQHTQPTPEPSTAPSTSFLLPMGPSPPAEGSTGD

[3] = target: T3, herpesvirus entry mediator (HVEM) (UniProt Q92956 39-202, limits assumed); test: ELISA on coated HVEM, OD 650 nm
T3 sequence (looked up): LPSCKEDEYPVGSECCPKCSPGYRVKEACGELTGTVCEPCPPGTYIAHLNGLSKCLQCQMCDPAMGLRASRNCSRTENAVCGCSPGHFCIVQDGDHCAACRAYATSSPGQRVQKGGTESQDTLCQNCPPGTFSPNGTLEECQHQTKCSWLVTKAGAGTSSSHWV
Experimental: (§1) To test binding to TNFR family members, target proteins were coated on ELISA plates at 1 μg/mL at 4° C. overnight. Plates were washed, blocked, and antibodies were added at indicated concentrations for 1 hour at RT. Positive control antibodies for each protein were used at ˜1 ug/mL. Antibodies were washed and detected with anti-human IgG HRP for 1 hour. Assay was developed using TMB substrate for 10 minutes. For cell-binding, human CD4+ T cells purified from buffy coats were cultured in flat-bottom plates with anti-CD3/CD28 for 24 hours. Cells were harvested and stained for viability, CD4, CD25 and FOXP3. Test antibody staining was detected using anti-human IgG APC. Binding titration of test antibodies was evaluated on CD4+CD25hiFOXP3+ regulatory T cells and plotted as percent binding.

TNFR-Fc = target: T4, TNFR-Fc (UniProt P20333 23-257, limits assumed); test: TNF-α blocking ELISA (soluble)
T4 construct: Printed only as TNFR-Fc; not shown: Fc part
T4 sequence (looked up): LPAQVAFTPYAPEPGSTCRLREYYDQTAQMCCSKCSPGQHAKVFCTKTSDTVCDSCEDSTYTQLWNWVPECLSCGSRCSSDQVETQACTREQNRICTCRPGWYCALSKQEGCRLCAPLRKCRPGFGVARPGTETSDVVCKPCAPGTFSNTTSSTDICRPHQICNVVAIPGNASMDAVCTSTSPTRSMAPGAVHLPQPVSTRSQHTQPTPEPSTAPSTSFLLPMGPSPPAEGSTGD

[4] = target: T2, human TNFR2-His tagged protein (soluble); test: ELISA, soluble human TNFR2
[5] = target: T5, TNFR2 (as used in the Octet measurement) (UniProt P20333 23-257, limits assumed); test: Octet (BLI), monovalent binding
T5 construct: Probably human soluble TNFR2; the legend says only TNFR2
T5 sequence (looked up): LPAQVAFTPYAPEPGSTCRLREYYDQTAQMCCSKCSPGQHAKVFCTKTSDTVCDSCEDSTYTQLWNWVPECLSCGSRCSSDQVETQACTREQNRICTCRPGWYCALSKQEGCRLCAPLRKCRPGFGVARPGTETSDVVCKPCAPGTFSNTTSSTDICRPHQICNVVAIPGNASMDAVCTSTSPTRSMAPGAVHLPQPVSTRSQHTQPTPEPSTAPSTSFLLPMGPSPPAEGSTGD

CD40 = CD40 (UniProt P25942 21-193, limits assumed); test: ELISA on coated CD40, OD 650 nm
Experimental: as §1

[6] = target: T6, human TNFR2 expressed on cells (human, UniProt P20333 23-461); test: cell binding on TNFR2-overexpressing (OE) cells
T6 construct: whole, on cells; also called hTNFR2 (cell); CHO-TNFR2
T6 sequence (looked up): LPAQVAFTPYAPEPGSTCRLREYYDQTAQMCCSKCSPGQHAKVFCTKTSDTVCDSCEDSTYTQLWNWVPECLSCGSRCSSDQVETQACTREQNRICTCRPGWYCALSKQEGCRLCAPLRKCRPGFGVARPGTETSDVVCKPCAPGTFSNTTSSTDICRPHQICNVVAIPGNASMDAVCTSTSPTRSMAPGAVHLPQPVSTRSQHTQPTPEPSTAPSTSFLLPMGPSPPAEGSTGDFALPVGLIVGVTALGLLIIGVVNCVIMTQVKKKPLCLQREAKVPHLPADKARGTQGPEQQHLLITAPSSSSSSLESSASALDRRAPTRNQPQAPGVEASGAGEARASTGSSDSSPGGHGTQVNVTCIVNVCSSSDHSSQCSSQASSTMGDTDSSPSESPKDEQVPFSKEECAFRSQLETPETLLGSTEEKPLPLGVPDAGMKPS

[7] = target: T6, human TNFR2 expressed on cells; test: flow cytometry, cell-expressed human TNFR2
[8] = target: T6, human TNFR2 expressed on cells; test: Primary Cell Affinity; binding titration on activated human Tregs, flow cytometry
Experimental: as §1

[9] = target: T6, human TNFR2 expressed on cells; test: blocking of biotinylated TNF-α on TNFR2-CHO cells, flow cytometry
Experimental: TNFR2-overexpressing CHO cells were plated at 100,000 cells per well. Cells were incubated with the indicated antibodies for 30 minutes on ice. […] Cells were analyzed using Cytoflex or MACSQuant flow cytometer. Assay was repeated twice.

[10] = target: T6, human TNFR2 expressed on cells; test: flow cytometry on cells expressing human TNFR2, MFI median
[11] = target: T7, human TNFR1-His tagged protein (human, UniProt P19438 30-211, limits assumed); test: ELISA on coated TNFR1, OD 450 nm
T7 construct: also called soluble human TNFR1; not shown: His tag
T7 sequence (looked up): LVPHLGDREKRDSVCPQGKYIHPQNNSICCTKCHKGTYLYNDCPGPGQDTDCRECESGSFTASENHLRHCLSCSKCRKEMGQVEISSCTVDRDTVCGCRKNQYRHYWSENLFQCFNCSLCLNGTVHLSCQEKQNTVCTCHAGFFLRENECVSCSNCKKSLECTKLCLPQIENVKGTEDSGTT
Experimental: as §1

death receptor 6 (DR6) = target: T8, death receptor 6 (DR6) (UniProt O75509 42-349, limits assumed); test: ELISA on coated DR6, OD 650 nm
T8 sequence (looked up): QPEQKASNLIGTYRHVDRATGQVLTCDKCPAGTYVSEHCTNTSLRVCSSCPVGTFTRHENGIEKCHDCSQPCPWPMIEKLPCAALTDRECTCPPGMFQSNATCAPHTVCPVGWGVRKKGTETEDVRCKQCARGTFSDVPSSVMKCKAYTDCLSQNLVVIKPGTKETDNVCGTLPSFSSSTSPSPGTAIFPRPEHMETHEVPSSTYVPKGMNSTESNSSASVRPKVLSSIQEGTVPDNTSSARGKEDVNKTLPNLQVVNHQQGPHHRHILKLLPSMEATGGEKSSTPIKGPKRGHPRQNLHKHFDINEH
Experimental: as §1

osteoprotegerin (OPG) = target: T9, osteoprotegerin (OPG) (UniProt O00300 22-401, limits assumed); test: ELISA on coated OPG, OD 650 nm
T9 sequence (looked up): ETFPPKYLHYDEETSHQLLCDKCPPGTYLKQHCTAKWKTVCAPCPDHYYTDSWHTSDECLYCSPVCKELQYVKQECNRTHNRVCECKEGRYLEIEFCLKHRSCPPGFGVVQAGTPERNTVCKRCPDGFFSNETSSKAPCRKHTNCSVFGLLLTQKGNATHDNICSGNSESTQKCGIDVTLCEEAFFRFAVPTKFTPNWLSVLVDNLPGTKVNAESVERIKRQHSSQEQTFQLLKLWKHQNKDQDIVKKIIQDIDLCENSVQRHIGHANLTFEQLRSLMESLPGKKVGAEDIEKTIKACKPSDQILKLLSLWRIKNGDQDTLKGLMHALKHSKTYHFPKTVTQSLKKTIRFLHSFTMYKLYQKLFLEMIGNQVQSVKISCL
Experimental: as §1

[12] = target: T6, human TNFR2 expressed on cells; test: cell-based or functional assay

CD40, sequence (P25942 21-193 limits assumed): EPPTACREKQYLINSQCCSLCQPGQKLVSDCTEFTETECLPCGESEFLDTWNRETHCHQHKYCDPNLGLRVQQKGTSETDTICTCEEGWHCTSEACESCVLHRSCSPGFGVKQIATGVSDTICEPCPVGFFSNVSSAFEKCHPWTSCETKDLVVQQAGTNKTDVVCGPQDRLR

EC50 [1]: 0.046 nM
EC50 (read off the curve) [2]: ~0.1 nM
binding result [3]: no binding (tested: about 67 nM)
IC50 (TNFR-Fc): 1.33 nM
EC50 [4]: 0.105 nM
koff [5]: 0.000233 s⁻¹
kon [5]: 376000 M⁻¹ s⁻¹
binding result (CD40): no binding (tested: about 67 nM)
Kd [6]: 0.0994 nM
EC50 [7]: 0.31 nM
Kd [8]: 0.05 nM
IC50 [9]: 0.198 nM
EC50 (read off the curve) [10]: ~0.3 nM
binding result [11]: no binding (tested: about 67 nM)
binding result (osteoprotegerin (OPG)): no binding (tested: about 67 nM)
ADCC EC50 (reporter line) [12]: 1.14 nM
ADCP EC50 [12]: 0.92 nM
B1: humanized antibody h600-25-108 (antibody, V domains shown)
VH: EVQLVESGGGLVQPGGSLRLSCAASGFSLSDYFMTWVRQAPGKGLEWVGIINTGGDSYYATWAKGRFTISRDNSKNTLYLQMNSLRAEDTAVYYCARDTGYGGYDYAGSFDPWGQGTLVTVSS
VL: DIQMTQSPSSVSASVGDRVTITCQASENINSWLAWYQQKPGKAPKLLIYEASKLASGVPSRFSGSGSGTDFTLTISSLQPEDFATYYCQQGYIYIDVGNIFGGGTKVEIK
binding result (death receptor 6 (DR6)): no binding (tested: about 67 nM)
